Assay: soluble fraction after stress (log2 fold change); higher = more stays soluble; pooled small domains, quantitative proteomics
Conditions: stress: pH 4
How it was run: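 Aggregation propensity is read out as the fold change in how much of each domain remains soluble after acid stress. The custom small-domain libraries were pooled, held at pH 4 and analysed with high-throughput quantitative proteomics. On the log2 scale used, higher values mean more of the domain stayed soluble.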

Row | Sequence | soluble fraction (log2)
1 | HMVVMKGKVKWFNKNKGYGFIITDDNKEYFVHWKSIVTNSPRELKVLEQDELVTFDLMETDKGIQAINII | -1.22
2 | HMVVPELNLAQQDVLRALRQRGRATADHLSVDTHRPVSEVMGILLGLEIAEVLYRVEGGWFVPKTAR | -1.04
3 | HMVVSDKIAFSSFLKSVEDGRVVEVEITGNDIRGILSDGTVFNTYAPNDPNLVEKLTSKGVNITALPKE | 0.0738
4 | HMVVYQRVHDEILQALKDNVYPVGTLLPPEPELERIYSVSRTTVRRAIAKLSEEGYVQVRQGYGTMVLKN | 0.22
5 | HMWGAYHDGQVVKFPKKVTVYVIDGQYKRPLANEFVLKFLNYKTSDIIIDKDGNLNNYKNGAVVEH | -0.332
6 | HMWMQKILGNYIAARRKELGMTQANLAEKIHVTDKAVSRWERGVGLPDIENLEALAKALEVSLVSLMQGKT | 0.22
7 | HMWNGIVDAGKARQHLMNLSQLGVGRRAVAAASDVAETVLMDIRSGTKTRIRARTERQILAVTPEMA | 0.22
8 | HMWNTADDIKEAIWKLIQSEDPKKPYSDLKISQLLLEKEMKISRRTVAKYRKEMGILGTYSRK | 0.23
9 | HMWQPIKLDRGDWQNSLQVGDRVFVRGIPRPVEILSAVDEENNIEVLMGTMRAKIPVYQLDKPAENFIDTT | -0.711
10 | HMWQVVEVDYGTFMSMTEDGQVGRVEIQEQENLILFTDQEETTVYKTAMVDDPDLTARLHDAGIPFYGQE | -2.29
11 | HMWSGEPFLDELRHADTLLETDPEAALAEYRALADKGSAAAMMALGNAYASGSHVARDEGEAEHWYRRAA | -0.752
12 | HMWSLLVILQLREGGQRFSQLQRAIPDISQRMLTQTLRKLERDGLVSRKVTPSTPPRVDYAITELGH | -0.556
13 | HMWSQEPEYRPLYNSMDGFDAGQVVEMLQQSRIDYKVEPNSGALLVRSEDLADARLRLASAGISP | -0.959
14 | HMYAEVTITIEKGMTSDSVSKLLYKAGIVDDAKEFNNYIIKAGKSTKILIGEFTIQKGASYDDIIKIIA | -0.133
15 | HMYAGTVTQVKNNKVMLEFDGETVNVGDQFFILNSDGKKVAIVEITAAKNKKALANVLKGKAVVDGTTQAK | -0.404
16 | HMYAVDTIHKGTITEMTDKGAVVSLGDNIDGFAPARQLVKEDGTTLKLGDTADFKVIEFSKATKRITLSH | 0.094
17 | HMYAVQKGDTLKKIADQFGISVDTIKWANDMKGDALSIDQELKIP | 0.0154
18 | HMYDAEAINKFFDIENWDFGETFYFQELSAYIMNQLSPKLVTILIVPRQTTQAFGSLFEIKSEPDEIFAS | -0.0578
19 | HMYDDEELDVLAHRPIESYTDAELAMLREVAETLLETDYEGWLKSLSMRGILLPPEILQLVT | -1.29
20 | HMYDDLEPFDANGRLRWSDKELILAFGRHRGVTLQTLELNDPGYLRWLLSGNGPLEQQDRKRLEDILES | -1.36
21 | HMYDEKTLRKAVLDYVRDNDDGRLDLMKIDSYLTSRYGNIDYAALGYNRLSMFISSFPELRRNSNYVTLRK | -0.158

Row | Sequence | soluble fraction (log2)
22 | HMYEDNERNLYSVVINFLNEHKIKISREAINLVINRSSGDKHNLKQELNKILNYSFSNKNITYETIEKLSN | 0.0456
23 | HMYEDNERSLVPIVQNFLKEKKILLSNQSINLIVQRSGGDRINLYNELQKIESFSKNQKKIDIGDIIKLTN | 0.169
24 | HMYEDSNQSLNFFAIKFIKEKNIKISQETTNLIVERARGDRGNLINELQKLEALSLTRKKITQEDVFNLTN | 0.22
25 | HMYEGLILINKYDSLVSAKLETNKIKSLGLFFEDMEEKIAVFSGPFKNNDINLKLDFLIRNGYLDAKIY | -1.53
26 | HMYEIEDIKEKLLDLLANSKTGFSGLEISNRLGINRITVSKYLNIFSAEGLIKQKNIGNVIIWFVEDGIE | -0.791
27 | HMYEVDGLGIRIAQLRKKQDLTQEAFARTLGVSPQAVSKWETGIGYPDITLLPQIAKELGVSIDQLFGRN | 0.0751
28 | HMYFGDADGNKKVDAADALYLKRHLADWEDYRELPQKTNVSWMDEASPANLMILERHIAGWKDYEMLPYT | -0.19
29 | HMYFMDEETWESKKTLLNDWYEANPEYADRRAISDGLFKIGDLQPDFRRRHWGSIGVIFADIPNSPMG | -1.37
30 | HMYGHKLDSYESYVVSELRRWPFLSAPQIHDRLKEHFSDLPLVTPKTVFNFVNRLRLTHSLPKE | -0.215
31 | HMYGLSFLIGFTVVDRTYGDIGKVTAIDDSTVNTLMAVGDRLIPAQEAFITKIDNTKKIIYTQLPEGLL | -0.512
32 | HMYGTQTVNRGAVQPGMLVKHKDSTWTASANARGRLYLHRGVEMTYTRDLLVEVYLNGLGNGL | -0.342
33 | HMYHADLIGLRVETAAGEKLGTVKAVHNFGAGDVIEITGAEDKDGLMVPFTAEVVPEVDIENGRIVVS | -0.868
34 | HMYHKKEKAQAANIEERIMILLSDGKHHHITEIKAIYVDEVITLNILEEMLAEEKVIIEGDMIMLVE | -1.47
35 | HMYKLTTQRRAILDVIIENHDKHLNPEEIYDIVKEKYPEIGIATVYRTLQLLEKLNIIYRLNFDDGYNRYE | -1.12
36 | HMYKLTYVVDGEVYLEETVSYGSKIAAAPAPEKEGYTFSGWEGLPEVMPAKDVTVSGSFTVN | -0.0428
37 | HMYKMKDRIKKIMEMQRTTQQDFADQLKIAPATLSSIFTGRTRPTLAIVDAIKSRFPQISTDWLMFGKGDM | 0.22
38 | HMYKNAFITYDNNLYYLGSDSKMAIGWQSIGGNTYYFRNWGGMITGKQVIDGKTYVFDEDGKLVQSPD | -0.807
39 | HMYLNYQTIGKRIRLLRKQQHLTQMTLAEMVDKSPTYISLVENGQKGPSLETLIDVANALKVTMDVLLAEY | -1.58
40 | HMYLPPYMEVRAVMILDGKPMALMYIEGEGDGLIVSPGYKFDNGKGKVVSITPTKVVVLWAGTKMELG | -1.17
41 | HMYLYHDLSDEAKAMGDEYVSVEHLVLALIRYPNNAVKELFREFGITRERFLQVLSTIRGNQRVTSDNPEA | -0.194
42 | HMYMFSGQRLKSLRKEKKMSQEKLGSLLNISKVAVSNWENAKSFPTMDNLNELAKVLEVEPHYF | -0.41

Row | Sequence | soluble fraction (log2)
43 | HMYMKLSVKDAALFLSVSPETVYRWVKQEEIPYHTVNDQLRFNRAELLEWATARSLEVSPDLFVP | -1.53
44 | HMYMWQVEDLIRANGLDIERIKDSIIRPYELDEERKRELTQWYEDLIDMMRREGVAQSGHLQIN | -2.24
45 | HMYNMEELAGHTEKVYNSLPEELKLVIKLREIENMSYDEISLKTGMPIGTVRSRLHRAREILVDSLKDY | -0.491
46 | HMYQNRLFYTLKTGETVADLSKSQDINLSTIWSLNKHLYSSESEMMKAAPGQQIILPLKKLP | 0.135
47 | HMYQPLRDVIFETLRKAIVSGDIKPGERLMEVSLANQMGVSRTPVREAIRRLEAEGLVTMTPRKGTHVAE | -0.215
48 | HMYQRLPFSFANRYKMVLESQHPERAPILYYVEPLKSAAIIEVSRVVKNGFTPQAITLDEFDKKLTDAYQR | -0.0881
49 | HMYRLSPSWRIVERDDGFEIYGGDDARFQLDPSPLVSRLAAGDAVTRDGLDPTGAIEFEQLLSAGMIRPEI | -0.829
50 | HMYRYTTFKVKEADTLLPFIQKSLNGISHNRAKAILTGGGVLVDKKITRAYDFALRPGMTVEISKSKP | ≥ 0.43
51 | HMYRYYSTLRPITPGAYPKPADNPAMLIHNFDNREYVGKIGREAWGYVEYNNPLTKEQIEAFDFVAE | -0.0236
52 | HMYSDIERAMTNAPEQFANKQAVLDFLNKNRIKKSEVDDYRIASLLKLYDDASPISKTEIISQVRT | -0.0708
53 | HMYSDQRMEIFLEHLPDFIEQLSHKHVTRQMVWEDYRMIYPDGYGKSQFFFHLAQNLKAQKP | -0.489
54 | HMYSYSFTSSEGSTFEGQLIRVEESQVTILRYADQKEFSIPKSRFIEADQVYFERWAIENPQL | -2.88
55 | HMYSYSGSVSNTHDVPVSVVLKDAEGVAIASWDLQAKQSLNISAKDIATSSGTIEITGDGVSETKTVTFTK | -0.229
56 | HMYTVKELSRLTGLTPRTLRYYDAIGLLSPARNRDNDYRLYGGAEVDRLQEILLYREMGLPLEEIGRILD | -0.491
57 | HMYTVQPHESLWSIAASQLGDGHRFTEIVDLNQELLGGKANFIKPGWVLQIP | -0.911
58 | HMYTVVVGDSPSLIADKTGVPLKELTAMNPNLSDNFLPGKQLL | -0.076
59 | HMYVEVPNFIGVPLVKVQSELASLGLVFNKSVVYQTSPYLKGNILDQRPLPGEVVPLNTEMSFTVSSGPA | -0.686
60 | HMYVKIAADAAMPYTIKRVVTDYSSAALDAAYDGSLPKWLTISSSTKDAGSGLYRHEIIYTVTAHPE | -0.942
61 | HMYVYEPGEFAVRGSILDVYSYASEFPYRIDFFGDDVESIRTFEVQTQLSKEAKDRVSIVPDTEQ | -0.585
62 | HMYYNDEELDGYRGTPSDAYSDNAVEEFREVLYTLREDEVSGWVRSLQLRGIFLPDAIKDETFLI | -1.84
63 | HMYYTAPDGRKREILDAALRLIAAGGPDSLTYRRVADEAGVPLGSLTYYFEAREDLIREAFRLYIAEASR | -1.6
